The values below come from the supplement of paper PMC10126150.

± gives the standard deviation of the averaged measurements.
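Further: ATP exposure 15 min at 22 °C before imaging.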

This series has as its system ATP. As to the kind of experiment: switch fluorescence ratio, 500 uM ATP over buffer (Cy3 cluster intensity, sum of 5 cycles each) (fold (ratio)); higher = stronger signal-on switching upon ATP binding; sequences stand for … in TCGTCGGCAGCGTCAGATGTGTATAAGAGACAGTTTTTTTTTTTTTTTTTTTTTTTTT…TC. As to conditions: aptamer strand: ATP DNA aptamer (quencher-CACCTGGGGGAGTATTGCGGAGGAAGG + anchor), 100 nM annealed; ATP concentration: 500 uM. In short, it runs like this: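 Cy3-labelled switching-strand clusters on a modified Illumina MiSeq flow-cell were annealed to 100 nM quencher-labelled ATP aptamer and imaged first in selection buffer, then after 15 min with 500 uM ATP at 22 °C. NaOH stripping and re-annealing separated each of five buffer/ATP cycles, and clusters outside 100-1000 RFU were excluded. The fluorescence ratio sums target-cycle Cy3 intensity over buffer-cycle Cy3 intensity per cluster and averages it per switch-domain sequence.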
Take TTTGTGTTTA: the switch fluorescence ratio was determined as 0.9791 ± 0.0042. In the case of CTGCGGATGG, the switch fluorescence ratio was found to be 1.058 ± 0.0066.

In the case of CGCCCCTGTA, the switch fluorescence ratio was found to be 1.04 ± 0.035.

Turning to GGGTGTAGTT, the switch fluorescence ratio turned out to be 0.999 ± 0.036. As for ATGCCGAAGG, the switch fluorescence ratio worked out at 0.985 ± 0.054. TCGGGGATGA: the switch fluorescence ratio was found to be 1.067 ± 0.0092. Then CATCGCGGTT, with 1.07 ± 0.022; and TCATACCATA, with 1.09 ± 0.03.

For the sequence CGGGTTCTCG, the switch fluorescence ratio came to 0.978 ± 0.025. As to GGGTATGAAG, the switch fluorescence ratio amounted to 1.04 ± 0.049.

As for AACGGGTAGC, the switch fluorescence ratio was determined as 0.993 ± 0.029. Then ATCTGTATGT, with 0.968 ± 0.017. Turning to GGACTCAGAA, the switch fluorescence ratio came out at 0.9867 ± 0.0045. Take TTTTAGTTTG: the switch fluorescence ratio stood at 1.01 ± 0.035. GGGATCCTCC: the switch fluorescence ratio was found to be 1.027 ± 0.006. TTTTAGAGT: the switch fluorescence ratio was 0.988 ± 0.024. Take TCGTGTGACT: the switch fluorescence ratio was 0.98961 ± 8.7e-05. On to AAGTTCACCA, for which the switch fluorescence ratio turned out to be 1.02 ± 0.018. As to GGCTATGTGG, the switch fluorescence ratio amounted to 0.987 ± 0.03. Consider TCCAAAGGGC, for which the switch fluorescence ratio is 1.07 ± 0.024. Regarding GTCGAGGGGG, the switch fluorescence ratio amounted to 0.997 ± 0.05. Consider AGTATTTGGT, for which the switch fluorescence ratio was 1 ± 0.025.

TAGGAATTTG: the switch fluorescence ratio turned out to be 0.998 ± 0.037. Regarding TTTTCTGTGT, the switch fluorescence ratio amounted to 0.9398 ± 0.0077. Then TTTCGGGTAT, with 1.05 ± 0.011; and ATGGCAATGT, with 1.08 ± 0.013. On to GTGAAAGTCG, for which the switch fluorescence ratio is 0.9929 ± 0.0024. In the case of TATAAATTTG, the switch fluorescence ratio is 1.01 ± 0.016. Under TTTTGTCAGG stands 0.993 ± 0.0079; under ATAGAGACTA, 1.006 ± 0.0078; under GGGGACTAGG, 0.982 ± 0.058.

On to TCCGAGGCGG, for which the switch fluorescence ratio is 2.131 ± 0.017. Consider GATGTTGAAT, for which the switch fluorescence ratio turned out to be 0.998 ± 0.021. Turning to ATATTTCACT, the switch fluorescence ratio stood at 1.03 ± 0.012. Under GTTTGGGGTT stands 0.979 ± 0.031. Under TTTATGGGCG stands 1.34 ± 0.64. With GTGGGGTGGG, the switch fluorescence ratio stood at 0.986 ± 0.029. As for AATGAAAGCG, the switch fluorescence ratio worked out at 1.01 ± 0.015. Regarding ATAAAGGGCG, the switch fluorescence ratio was determined as 1.029 ± 0.01. As to AGGAAGGGGT, the switch fluorescence ratio is 0.979 ± 0.033. Take CATGTATGTT: the switch fluorescence ratio worked out at 1.01 ± 0.012. With AGTATATGGG, the switch fluorescence ratio worked out at 0.988 ± 0.023. Then GTTGCACTTT, with 0.983 ± 0.052; and AATTCGTGCA, with 1.03 ± 0.036; and AGCCGGGTAG, with 1.053 ± 0.0086. As for TAAAGTTCAG, the switch fluorescence ratio is 0.9685 ± 0.0073. Then TTTAAAGCAG, with 1.01 ± 0.02; and ACCATTCAAA, with 1 ± 0.021; and ATGTGTGAAT, with 0.997 ± 0.015. In the case of TATGCATATG, the switch fluorescence ratio is 1.02 ± 0.048.

Consider CAGGTTTCTA, for which the switch fluorescence ratio amounted to 1 ± 0.043.

With CGGGTAGGGT, the switch fluorescence ratio was found to be 0.998 ± 0.039. Then CACTCTGTCA, with 1.04 ± 0.022. Turning to CAGCTTGGAT, the switch fluorescence ratio amounted to 0.977 ± 0.013. Regarding CGGTGGGATT, the switch fluorescence ratio was determined as 0.979 ± 0.019. Then GGGCCCGCAA, with 5.05 ± 0.21; and CGTACCGGTC, with 1.04 ± 0.079. Take TGGGAACACT: the switch fluorescence ratio was 1.01 ± 0.033. Regarding CGGAATGGTT, the switch fluorescence ratio amounted to 1.04 ± 0.036.

In the case of ATCAGTGATG, the switch fluorescence ratio turned out to be 1 ± 0.046. For GTTTTTTGGC, the switch fluorescence ratio is 0.97 ± 0.058.

Regarding TTTGTTCCTT, the switch fluorescence ratio came out at 1.01 ± 0.04. Then ACGAGTTACT, with 1.1 ± 0.013; and AGGAAATAGG, with 0.963 ± 0.049; and CACTAGCTCG, with 1.02 ± 0.021. On to AAGAAATAAA, for which the switch fluorescence ratio worked out at 0.9744 ± 0.0095. Regarding ATCAAAGGTT, the switch fluorescence ratio was found to be 1.03 ± 0.051.

With TCCAGCTGTG, the switch fluorescence ratio was 0.9916 ± 0.0022. Take TTAGCTGTAG: the switch fluorescence ratio was determined as 1.09 ± 0.11. As for CGGTAGTCGG, the switch fluorescence ratio worked out at 1.03 ± 0.027. Under TATCACTTTC stands 1.06 ± 0.033.

TCGGATAGCT: the switch fluorescence ratio was determined as 1.02 ± 0.014.

With TGTGGGTTGG, the switch fluorescence ratio is 0.956 ± 0.018. Consider GCTCCTAAAA, for which the switch fluorescence ratio stood at 1.1039 ± 0.00034. On to CATCTGTTGT, for which the switch fluorescence ratio came to 0.9856 ± 0.0092.

As to CCAGGAGGAG, the switch fluorescence ratio came out at 1 ± 0.027. As for TATAGGGGGC, the switch fluorescence ratio worked out at 1.03 ± 0.05. Take TTTAGGGGAG: the switch fluorescence ratio was found to be 0.994 ± 0.022. On to GCCGGGGGGG, for which the switch fluorescence ratio was determined as 1.02 ± 0.02.

For the sequence TTAGGGCTTT, the switch fluorescence ratio came out at 1.01 ± 0.035.

For the sequence TAGTTTATCA, the switch fluorescence ratio came out at 1.001 ± 0.01.

On to AGATGGTCAA, for which the switch fluorescence ratio was 0.967 ± 0.02. On to ACCGGTTAGC, for which the switch fluorescence ratio was determined as 1.02 ± 0.015.

With CGCGATGGGT, the switch fluorescence ratio came to 1.08 ± 0.033. As for AATTGTTTAG, the switch fluorescence ratio was 0.982 ± 0.034. As for GGGGGGCCGT, the switch fluorescence ratio turned out to be 0.957 ± 0.025.

For the sequence ACGATTCAAG, the switch fluorescence ratio came to 1.02 ± 0.061. For TTATTACGGA, the switch fluorescence ratio amounted to 1.03 ± 0.013. Then TGCAAGAGTT, with 1.01 ± 0.014; and GACGACTCGG, with 0.987 ± 0.026; and TCAGTGACGG, with 1.0248 ± 0.00071. As for GGATCTTGGC, the switch fluorescence ratio worked out at 1.02 ± 0.025.

Consider TATGAGCAGC, for which the switch fluorescence ratio turned out to be 1.01 ± 0.066. Under GGTGCAGCTG stands 0.981 ± 0.016. With TTAACGGTAA, the switch fluorescence ratio was 1.09 ± 0.042.

Regarding ACGCCGGGCT, the switch fluorescence ratio was 1.07 ± 0.054. Under TTTAGGTTTT stands 1.01 ± 0.021; under ATGCCGTGGC, 1.02 ± 0.033; under AATATTCGTT, 0.997 ± 0.039. Regarding GGCTTAATGA, the switch fluorescence ratio was 0.971 ± 0.029. TGAAATGAAT: the switch fluorescence ratio is 0.994 ± 0.02. As to CTGCGTAGGG, the switch fluorescence ratio is 1.04 ± 0.029.

Take TAGAAAGGGA: the switch fluorescence ratio worked out at 1.02 ± 0.039. Under TGTAGTTGGT stands 1.014 ± 0.0096.

For AATTTTGGGA, the switch fluorescence ratio was found to be 0.994 ± 0.023. As to TCATTATGTG, the switch fluorescence ratio stood at 0.98 ± 0.023.

Consider CTTTTGCGCA, for which the switch fluorescence ratio was 1.007 ± 0.0079. Take GATTGGGTCA: the switch fluorescence ratio was 1 ± 0.012.

For TTGAGGACGG, the switch fluorescence ratio was 1.03 ± 0.016. Then AAGGGTAGGC, with 1.03 ± 0.042.

As to GAGGCAAAGT, the switch fluorescence ratio turned out to be 1.094 ± 0.0059. In the case of CGATTTGCCT, the switch fluorescence ratio is 0.9806 ± 0.006. Under TTATATATTG stands 0.969 ± 0.029; under GTTGCATGGG, 0.963 ± 0.012; under AATGGGGAAG, 0.985 ± 0.018. As to TTTATTAGTA, the switch fluorescence ratio turned out to be 0.983 ± 0.024.

In the case of CAAGTATATT, the switch fluorescence ratio worked out at 0.968 ± 0.032. Under CGTGGGGTCA stands 0.982 ± 0.024. As to GTTGGTAGCC, the switch fluorescence ratio is 0.978 ± 0.022.

As to AAATTATCCA, the switch fluorescence ratio was found to be 1.016 ± 0.0092.
